This experiment concerns the target mouse PD-1 expressed on cells (mouse) (UniProt Q02242). As to the kind of experiment: cell-based or functional assay.

Consider one molecule from patent US20230416363A1.

mouse PD-1 expressed on cells (mouse), sequence (Q02242 25-288): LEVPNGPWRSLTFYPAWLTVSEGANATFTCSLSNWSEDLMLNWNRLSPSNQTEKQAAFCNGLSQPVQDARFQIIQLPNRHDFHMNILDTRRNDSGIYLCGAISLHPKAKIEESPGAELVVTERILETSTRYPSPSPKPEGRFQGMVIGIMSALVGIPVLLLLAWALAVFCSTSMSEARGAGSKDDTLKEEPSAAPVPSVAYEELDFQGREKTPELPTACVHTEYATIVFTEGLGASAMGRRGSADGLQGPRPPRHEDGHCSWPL

B1: RMP1-14 (antibody, from another filing, V domains shown)
VH: EVQLQESGPGLVKPSQSLSLTCSVTGYSITSSYRWNWIRKFPGNRLEWMGYINSAGISNYNPSLKRRISITRDTSKNQFFLQVNSVTTEDAATYYCARSDNMGTTPFTYWGQGTLVTVSS
VL: DIVMTQGTLPNPVPSGESVSITCRSSKSLLYSDGKTYLNWYLQRPGQSPQLLIYWMSTRASGVSDRFSGSGSGTDFTLKISGVEAEDVGIYYCQQGLEFPTFGGGTKLELK
The molecule B1 returned an IC 50, Promega assay of 5.59 µg/mL.
